The data set in a line: self-splicing fitness, log relative to wild type (ln ratio); higher = more splicing; Tetrahymena group I intron in knt gene, E. coli kanamycin selection, DiMSum; sequences stand for … in CUCUCU…GGAGGGAAAAGUUAUCAGGCAUGCACCUGGUAGCUAGUCUUUAAACCAAUAGAUUGCAUCGGUUUAAAAGGCAAGACCGUCAAAUUGCGGGAAAGGGGUCAACAGCCGUUCAGUACCAAGUCUCAGGGGAAACUUUGAGAUGGCCUUGCAAAGGGUAUGGUAAUAAGCUGACGGACAUGGUCCUAACCACGCAGCCAAGUCCUAAGUCAACAGAUCUUCUGUUGAUAUGGAUGCAGUUCACAGACUAAAUGUCGGUCGGGGAAGAUGUAUUCUUCUCAUAAGAUAUAGUCGGACCUCUCCUUAAUGGGAGCUAGCGGAUGAAGUGAUGCAACACUGGAGCCGCUGGGAACUAAUUUGUAUGCGAAAGUAUAUUGAUUAGUUUUGGAGUACUCGUGGUCG
In a few lines:
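DiMSum derived fitness as the error-weighted combination of fold changes across replicates, kanamycin versus no kanamycin, normalised to wild type. E. coli BL21(DE3) held the library, which randomised all eight P1ex-region intron nucleotides within the knt kanamycin-resistance gene on pET-22b(+). Six replicate transformations grew overnight at 37°C or 30°C on LB agar with or without 25 μg/mL kanamycin, also containing 100 μg/mL carbenicillin, 50 μM IPTG and 0.2% rhamnose, and pooled colonies were amplicon-sequenced on an Illumina HiSeq 2500.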

± gives the uncertainty stated by the source.

From the supplement of paper PMC7877785 come the findings set out here.

Take GCCAAGCAAUAUUACGCUCA: the “self-splicing fitness (ln)” value is -0.458 ± 0.093 (30 °C) and 0.0485 ± 0.12 (37 °C).
The like results for GAAUAGCAAUAUUACGAAAG were, in that order, -3.86 ± 0.41 and -2.55 ± 0.27.
In the case of GGGUAGCAAUAUUACGUUCA, the “self-splicing fitness (ln)” value reads like this: (30 °C) 0.0201 ± 0.096; (37 °C) -0.0805 ± 0.12.
With ACGUAGCAAUAUUACGGAAU, the “self-splicing fitness (ln)” value reads like this: (30 °C) -2.29 ± 0.15; (37 °C) -2.07 ± 0.17.
The like results for AUCUAGCAAUAUUACGGUAG were, in that order, -3.92 ± 0.28 and -2.13 ± 0.22.
In the case of CUCCAGCAAUAUUACGAAGG, the “self-splicing fitness (ln)” value runs as follows: (30 °C) -3.5 ± 0.32; (37 °C) -2.13 ± 0.23.
The matching figures for GCUCAGCAAUAUUACGCGUA: -0.217 ± 0.067 and -0.265 ± 0.079.
The like results for GCACAGCAAUAUUACGUAGG were, in that order, -0.466 ± 0.055 and -0.109 ± 0.069.
The like results for AGGUAGCAAUAUUACGCCCG were, in that order, -0.077 ± 0.022 and -0.122 ± 0.04.
On to AGAUAGCAAUAUUACGUGCA, for which the “self-splicing fitness (ln)” value (30 °C) was -0.725 ± 0.13 and the “self-splicing fitness (ln)” value (37 °C) is -0.616 ± 0.15.
On to CCUAAGCAAUAUUACGGAAA, for which, where the note is “37 °C”, the “self-splicing fitness (ln)” value is -2.27 ± 0.27.
Consider UCUAAGCAAUAUUACGCCGA, for which the “self-splicing fitness (ln)” value was -1.12 ± 0.19 (30 °C) and -0.156 ± 0.2 (37 °C).
The matching figures for AUCCAGCAAUAUUACGAACA: -0.801 ± 0.087 and -0.748 ± 0.11.
The matching figures for UUGCAGCAAUAUUACGAGGU: -3.94 ± 0.33 and -2.65 ± 0.44.
The like results for GAAUAGCAAUAUUACGAGCA were, in that order, -1.94 ± 0.23 and -0.431 ± 0.14.
For the sequence AAAAAGCAAUAUUACGCCAC, the “self-splicing fitness (ln)” value (37 °C) was -2.91 ± 0.47.
Take CUGCAGCAAUAUUACGUUCC: where the note is “37 °C”, the “self-splicing fitness (ln)” value was -1.74 ± 0.35.
For UCACAGCAAUAUUACGGAUU, the “self-splicing fitness (ln)” value (30 °C) is -4.45 ± 0.13 and the “self-splicing fitness (ln)” value (37 °C) was -2.38 ± 0.096.
For AGACAGCAAUAUUACGAAUA, the “self-splicing fitness (ln)” value runs as follows: (30 °C) -2.38 ± 0.24; (37 °C) -1.62 ± 0.19.
The matching figures for GUAUAGCAAUAUUACGGUCA: -1.5 ± 0.2 and -0.663 ± 0.18.
In the case of AUGUAGCAAUAUUACGGCCG, the “self-splicing fitness (ln)” value (30 °C) is -2.32 ± 0.31 and the “self-splicing fitness (ln)” value (37 °C) was -0.303 ± 0.33.
The matching figures for AGCCAGCAAUAUUACGUAGC: -3.01 ± 0.14 and -2.05 ± 0.15.
The matching figures for UUCAAGCAAUAUUACGGUGA: -0.763 ± 0.093 and 0.168 ± 0.092.
The matching figures for CAUCAGCAAUAUUACGGCGA: -3.11 ± 0.28 and -1.27 ± 0.15.
In the case of ACCUAGCAAUAUUACGCACC, the “self-splicing fitness (ln)” value runs as follows: (30 °C) -1.24 ± 0.14; (37 °C) 0.276 ± 0.16.
The matching figures for GACGAGCAAUAUUACGUAGU: -2.9 ± 0.26 and -1.88 ± 0.3.
The like results for GUUAAGCAAUAUUACGCGUU were, in that order, -0.757 ± 0.08 and -1.07 ± 0.12.
The like results for UCUUAGCAAUAUUACGAUCG were, in that order, -1.44 ± 0.19 and -0.631 ± 0.19.
UGUCAGCAAUAUUACGAAGC: the “self-splicing fitness (ln)” value (30 °C) was -3.79 ± 0.18 and the “self-splicing fitness (ln)” value (37 °C) is -0.785 ± 0.17.
The matching figures for CCCGAGCAAUAUUACGGUUC: -3.62 ± 0.2 and -1.98 ± 0.2.
Turning to AACCAGCAAUAUUACGGAAA, the “self-splicing fitness (ln)” value (30 °C) is -1.73 ± 0.097 and the “self-splicing fitness (ln)” value (37 °C) is -0.275 ± 0.088.
As for CCUAAGCAAUAUUACGCUUU, the “self-splicing fitness (ln)” value by setting is: (30 °C) -3.09 ± 0.23; (37 °C) -2.17 ± 0.26.
The like results for GUAUAGCAAUAUUACGAUAG were, in that order, -1.67 ± 0.099 and -0.533 ± 0.1.
The like results for CAUCAGCAAUAUUACGUACC were, in that order, -2.74 ± 0.3 and -1.63 ± 0.28.
The like results for GCCUAGCAAUAUUACGUCGC were, in that order, -1.46 ± 0.17 and -1.01 ± 0.16.
Consider UGGUAGCAAUAUUACGUAAA, for which the “self-splicing fitness (ln)” value by setting is: (30 °C) -1.01 ± 0.099; (37 °C) -0.497 ± 0.11.
The matching figures for ACUCAGCAAUAUUACGGAAU: -1.75 ± 0.084 and -0.549 ± 0.11.
The like results for CUGUAGCAAUAUUACGAAGU were, in that order, -2.13 ± 0.23 and -1.82 ± 0.27.
The like results for UCCAAGCAAUAUUACGAAGA were, in that order, -0.503 ± 0.086 and -0.326 ± 0.087.
In the case of CGCUAGCAAUAUUACGAUUU, the “self-splicing fitness (ln)” value is -3.41 ± 0.2 (30 °C) and -1.42 ± 0.12 (37 °C).
With GAUAAGCAAUAUUACGCGUA, the “self-splicing fitness (ln)” value reads like this: (30 °C) -0.996 ± 0.14; (37 °C) -0.968 ± 0.16.
Turning to ACCAAGCAAUAUUACGAGGA, the “self-splicing fitness (ln)” value (30 °C) is -3.15 ± 0.19 and the “self-splicing fitness (ln)” value (37 °C) was -2.7 ± 0.16.
The like results for UGCCAGCAAUAUUACGUUCU were, in that order, -2.37 ± 0.17 and -1.23 ± 0.14.
The matching figures for UAAAAGCAAUAUUACGGCCA: 0.0708 ± 0.15 and 0.573 ± 0.19.
GACUAGCAAUAUUACGAAGU: the “self-splicing fitness (ln)” value is, setting by setting: (30 °C) -3.08 ± 0.17; (37 °C) -1.82 ± 0.22.
The matching figures for CGGAAGCAAUAUUACGACAU: -3.637 ± 0.026 and -2.32 ± 0.038.
The matching figures for CCACAGCAAUAUUACGUUAA: -3.12 ± 0.14 and -2.48 ± 0.14.
Turning to AACGAGCAAUAUUACGAACG, the “self-splicing fitness (ln)” value is, setting by setting: (30 °C) -3.03 ± 0.45; (37 °C) -1.37 ± 0.28.
On to CGGCAGCAAUAUUACGUACC, for which the “self-splicing fitness (ln)” value reads like this: (30 °C) -2.07 ± 0.19; (37 °C) -1.61 ± 0.25.
As for UAUAAGCAAUAUUACGUAGA, the “self-splicing fitness (ln)” value is, setting by setting: (30 °C) -1.89 ± 0.11; (37 °C) -0.959 ± 0.13.
The matching figures for CUUAAGCAAUAUUACGACCA: -3.3 ± 0.4 and -2.04 ± 0.4.
The matching figures for GUAUAGCAAUAUUACGCCAG: -3.17 ± 0.33 and -1.26 ± 0.29.
As to UAUCAGCAAUAUUACGCCCC, the “self-splicing fitness (ln)” value by setting is: (30 °C) 1 ± 0.34; (37 °C) -1.06 ± 0.41.
The matching figures for CUUCAGCAAUAUUACGUGCG: -2.43 ± 0.09 and -0.814 ± 0.099.
Turning to CAGUAGCAAUAUUACGGUGC, the “self-splicing fitness (ln)” value is -3.8 ± 0.28 (30 °C) and -3.2 ± 0.31 (37 °C).
As to CCAAAGCAAUAUUACGAGCC, the “self-splicing fitness (ln)” value (30 °C) was -3.2 ± 0.21 and the “self-splicing fitness (ln)” value (37 °C) is -2.07 ± 0.19.
The like results for UAGCAGCAAUAUUACGUUCU were, in that order, -1.45 ± 0.1 and -0.606 ± 0.12.
The matching figures for AAUAAGCAAUAUUACGGCCA: -0.21 ± 0.12 and -0.615 ± 0.12.
For the sequence CAACAGCAAUAUUACGGCGA, the “self-splicing fitness (ln)” value is, setting by setting: (30 °C) -1.5 ± 0.094; (37 °C) -0.709 ± 0.087.
Turning to UAAGAGCAAUAUUACGGCUU, the “self-splicing fitness (ln)” value (30 °C) was -2.3 ± 0.2 and the “self-splicing fitness (ln)” value (37 °C) was -1.44 ± 0.22.
Consider GCAUAGCAAUAUUACGGCUU, for which the “self-splicing fitness (ln)” value is -0.36 ± 0.11 (30 °C) and -0.322 ± 0.11 (37 °C).
For the sequence GUCAAGCAAUAUUACGGUAU, the “self-splicing fitness (ln)” value (30 °C) is -1.54 ± 0.075 and the “self-splicing fitness (ln)” value (37 °C) was -0.662 ± 0.085.
The matching figures for CUCGAGCAAUAUUACGGAGU: -3.07 ± 0.22 and -2.57 ± 0.31.
For the sequence ACAUAGCAAUAUUACGCCGG, the “self-splicing fitness (ln)” value runs as follows: (30 °C) -0.986 ± 0.14; (37 °C) 0.077 ± 0.21.
Regarding CCCAAGCAAUAUUACGGCCC, for the setting “30 °C”, the “self-splicing fitness (ln)” value was -2.39 ± 0.47.
Turning to GCGUAGCAAUAUUACGAUGG, the “self-splicing fitness (ln)” value runs as follows: (30 °C) -1.91 ± 0.17; (37 °C) -2.82 ± 0.31.
The matching figures for AAGCAGCAAUAUUACGUCGC: -2.95 ± 0.19 and -2.51 ± 0.31.
In the case of UGGCAGCAAUAUUACGCGCU, where the note is “37 °C”, the “self-splicing fitness (ln)” value was -2.45 ± 0.49.
Regarding UUUUAGCAAUAUUACGUAUA, under “30 °C”, the “self-splicing fitness (ln)” value is -2.59 ± 0.42.
As for UAAAAGCAAUAUUACGCUCG, the “self-splicing fitness (ln)” value runs as follows: (30 °C) -0.628 ± 0.084; (37 °C) 0.0432 ± 0.099.
The matching figures for AAGUAGCAAUAUUACGAGAG: -3.09 ± 0.22 and -1.05 ± 0.21.
The matching figures for UUAUAGCAAUAUUACGAUCU: -1.74 ± 0.32 and -1.17 ± 0.25.
Consider UGUCAGCAAUAUUACGUAGU, for which the “self-splicing fitness (ln)” value runs as follows: (30 °C) -2.85 ± 0.15; (37 °C) -0.865 ± 0.11.
The matching figures for GUGAAGCAAUAUUACGUGGA: -3.07 ± 0.13 and -1.24 ± 0.15.
The like results for GUCAAGCAAUAUUACGAUGA were, in that order, -2.41 ± 0.17 and -1.1 ± 0.11.
For CGUCAGCAAUAUUACGGAAA, the “self-splicing fitness (ln)” value (30 °C) was -2.57 ± 0.3 and the “self-splicing fitness (ln)” value (37 °C) is -2.38 ± 0.37.
In the case of CAUGAGCAAUAUUACGAUAC, where the note is “30 °C”, the “self-splicing fitness (ln)” value is -2.93 ± 0.35.
